IntAct's records for PubMed 17254968

B1: Cellular tumor antigen p53 (Mus musculus), P02340 (parent)
chain: MTAMEESQSDISLELPLSQETFSGLWKLLPPEDILPSPHCMDDLLLPQDVEEFFEGPSEALRVSGAPAAQDPVTETPGPVAPAPATPWPLSSFVPSQKTYQGNYGFHLGFLQSGTAKSVMCTYSPPLNKLFCQLAKTCPVQLWVSATPPAGSRVRAMAIYKKSQHMTEVVRRCPHHERCSDGDGLAPPQHLIRVEGNLYPEYLEDRQTFRHSVVVPYEPPEAGSEYTTIHYKYMCNSSCMGGMNRRPILTIITLEDSSGNLLGRDSFEVRVCACPGRDRRTEEENFRKKEVLCPELPPGSAKRALPTCTSASPPQKKKPLDGEYFTLKIRGRKRFEMFRELNEALELKDAHATEESGDSRAHSSYLKTKKGQSTSRHKKTMVKKVGPDSD

Variants of: B1
Settings: with mapk5_mouse Mapkapk5, O54992
Sequence of mapk5_mouse Mapkapk5, O54992 (O54992 whole entry): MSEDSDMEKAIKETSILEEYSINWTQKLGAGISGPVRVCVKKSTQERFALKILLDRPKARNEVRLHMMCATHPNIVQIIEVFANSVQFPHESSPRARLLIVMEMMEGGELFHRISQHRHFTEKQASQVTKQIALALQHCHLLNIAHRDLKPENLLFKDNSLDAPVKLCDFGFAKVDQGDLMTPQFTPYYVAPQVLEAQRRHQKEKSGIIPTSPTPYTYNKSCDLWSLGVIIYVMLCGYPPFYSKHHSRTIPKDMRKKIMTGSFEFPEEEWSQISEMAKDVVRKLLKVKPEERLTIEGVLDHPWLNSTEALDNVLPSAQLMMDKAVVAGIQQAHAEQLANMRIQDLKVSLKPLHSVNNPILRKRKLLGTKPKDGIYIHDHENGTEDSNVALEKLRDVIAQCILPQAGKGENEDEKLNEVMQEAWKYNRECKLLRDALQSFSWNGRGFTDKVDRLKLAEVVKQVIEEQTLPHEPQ

Row | Variant | effect of a mutation on the interaction
1 | S37D | disrupting interaction
